Assay results published in patent publication US20060100138.

Tests used:
[1] = test system: Synthetic human type III collagen
[2] = test system: Synthetic human type I collagen
Sequence of Synthetic human type I collagen (chain, as listed by the source, chain 1 of 2): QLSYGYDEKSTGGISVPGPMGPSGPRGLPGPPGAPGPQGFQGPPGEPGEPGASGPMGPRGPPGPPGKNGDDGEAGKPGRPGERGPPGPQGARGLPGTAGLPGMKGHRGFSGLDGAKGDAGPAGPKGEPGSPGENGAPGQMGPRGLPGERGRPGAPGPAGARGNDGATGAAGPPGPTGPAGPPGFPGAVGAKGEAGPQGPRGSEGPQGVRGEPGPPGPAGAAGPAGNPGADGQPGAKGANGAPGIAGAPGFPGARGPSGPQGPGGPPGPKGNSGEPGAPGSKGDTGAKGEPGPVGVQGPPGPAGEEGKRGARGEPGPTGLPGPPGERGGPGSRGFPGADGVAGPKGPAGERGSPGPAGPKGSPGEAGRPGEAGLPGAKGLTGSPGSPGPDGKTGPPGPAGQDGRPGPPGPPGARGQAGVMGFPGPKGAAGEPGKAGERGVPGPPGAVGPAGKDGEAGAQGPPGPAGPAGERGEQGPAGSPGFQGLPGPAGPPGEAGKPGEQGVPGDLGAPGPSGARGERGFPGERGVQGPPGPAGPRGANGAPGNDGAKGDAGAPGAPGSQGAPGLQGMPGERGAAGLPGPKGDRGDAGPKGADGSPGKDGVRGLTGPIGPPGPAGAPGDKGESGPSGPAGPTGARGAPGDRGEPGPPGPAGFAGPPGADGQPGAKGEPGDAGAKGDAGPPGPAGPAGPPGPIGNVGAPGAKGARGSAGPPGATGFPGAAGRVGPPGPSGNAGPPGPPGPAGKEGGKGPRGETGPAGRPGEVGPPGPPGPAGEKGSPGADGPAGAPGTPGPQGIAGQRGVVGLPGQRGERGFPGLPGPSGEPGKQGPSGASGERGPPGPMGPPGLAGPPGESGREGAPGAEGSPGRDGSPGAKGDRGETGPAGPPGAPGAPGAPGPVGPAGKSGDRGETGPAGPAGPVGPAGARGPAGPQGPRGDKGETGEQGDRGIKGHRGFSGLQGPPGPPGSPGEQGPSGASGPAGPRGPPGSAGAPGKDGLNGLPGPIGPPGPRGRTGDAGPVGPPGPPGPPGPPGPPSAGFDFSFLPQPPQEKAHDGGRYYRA
Sequence of Synthetic human type I collagen (chain, as listed by the source, chain 2 of 2): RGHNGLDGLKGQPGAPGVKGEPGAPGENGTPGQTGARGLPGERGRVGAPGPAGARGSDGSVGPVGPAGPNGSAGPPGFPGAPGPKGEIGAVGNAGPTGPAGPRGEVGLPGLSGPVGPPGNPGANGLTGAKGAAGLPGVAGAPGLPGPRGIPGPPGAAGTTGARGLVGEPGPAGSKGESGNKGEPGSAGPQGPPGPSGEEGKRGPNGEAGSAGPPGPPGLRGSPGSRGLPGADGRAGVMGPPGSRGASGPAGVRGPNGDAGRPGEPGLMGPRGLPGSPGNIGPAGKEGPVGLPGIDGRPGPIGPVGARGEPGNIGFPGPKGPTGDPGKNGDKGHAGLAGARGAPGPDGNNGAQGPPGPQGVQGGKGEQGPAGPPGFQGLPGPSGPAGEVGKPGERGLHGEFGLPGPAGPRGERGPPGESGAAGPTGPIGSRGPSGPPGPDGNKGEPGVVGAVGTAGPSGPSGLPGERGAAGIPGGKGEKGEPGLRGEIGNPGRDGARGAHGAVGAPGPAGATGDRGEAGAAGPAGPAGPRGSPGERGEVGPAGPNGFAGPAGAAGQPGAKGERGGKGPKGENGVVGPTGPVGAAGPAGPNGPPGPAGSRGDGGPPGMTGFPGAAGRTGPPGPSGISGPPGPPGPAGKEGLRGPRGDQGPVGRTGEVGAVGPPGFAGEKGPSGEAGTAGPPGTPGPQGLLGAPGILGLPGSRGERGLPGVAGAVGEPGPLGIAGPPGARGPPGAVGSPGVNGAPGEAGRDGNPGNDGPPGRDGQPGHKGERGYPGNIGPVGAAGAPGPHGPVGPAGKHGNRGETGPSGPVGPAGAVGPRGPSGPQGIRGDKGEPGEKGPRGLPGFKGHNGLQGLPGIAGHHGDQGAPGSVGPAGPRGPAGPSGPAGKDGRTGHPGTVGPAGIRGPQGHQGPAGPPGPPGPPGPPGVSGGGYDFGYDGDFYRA

Sequence of MMP-8 (collagenase 2, neutrophil collagenase) (chain, as listed by the source): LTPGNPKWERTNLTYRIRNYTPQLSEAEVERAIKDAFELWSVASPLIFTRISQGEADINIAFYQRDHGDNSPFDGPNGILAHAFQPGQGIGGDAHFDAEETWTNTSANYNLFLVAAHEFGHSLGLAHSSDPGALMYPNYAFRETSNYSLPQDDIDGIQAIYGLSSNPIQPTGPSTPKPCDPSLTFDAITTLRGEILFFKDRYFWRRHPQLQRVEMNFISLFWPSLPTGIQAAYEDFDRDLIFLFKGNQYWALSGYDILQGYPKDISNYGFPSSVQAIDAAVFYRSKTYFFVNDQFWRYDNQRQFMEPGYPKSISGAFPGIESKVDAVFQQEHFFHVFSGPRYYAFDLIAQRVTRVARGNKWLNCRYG
Sequence of Synthetic human type III collagen (chain, as listed by the source): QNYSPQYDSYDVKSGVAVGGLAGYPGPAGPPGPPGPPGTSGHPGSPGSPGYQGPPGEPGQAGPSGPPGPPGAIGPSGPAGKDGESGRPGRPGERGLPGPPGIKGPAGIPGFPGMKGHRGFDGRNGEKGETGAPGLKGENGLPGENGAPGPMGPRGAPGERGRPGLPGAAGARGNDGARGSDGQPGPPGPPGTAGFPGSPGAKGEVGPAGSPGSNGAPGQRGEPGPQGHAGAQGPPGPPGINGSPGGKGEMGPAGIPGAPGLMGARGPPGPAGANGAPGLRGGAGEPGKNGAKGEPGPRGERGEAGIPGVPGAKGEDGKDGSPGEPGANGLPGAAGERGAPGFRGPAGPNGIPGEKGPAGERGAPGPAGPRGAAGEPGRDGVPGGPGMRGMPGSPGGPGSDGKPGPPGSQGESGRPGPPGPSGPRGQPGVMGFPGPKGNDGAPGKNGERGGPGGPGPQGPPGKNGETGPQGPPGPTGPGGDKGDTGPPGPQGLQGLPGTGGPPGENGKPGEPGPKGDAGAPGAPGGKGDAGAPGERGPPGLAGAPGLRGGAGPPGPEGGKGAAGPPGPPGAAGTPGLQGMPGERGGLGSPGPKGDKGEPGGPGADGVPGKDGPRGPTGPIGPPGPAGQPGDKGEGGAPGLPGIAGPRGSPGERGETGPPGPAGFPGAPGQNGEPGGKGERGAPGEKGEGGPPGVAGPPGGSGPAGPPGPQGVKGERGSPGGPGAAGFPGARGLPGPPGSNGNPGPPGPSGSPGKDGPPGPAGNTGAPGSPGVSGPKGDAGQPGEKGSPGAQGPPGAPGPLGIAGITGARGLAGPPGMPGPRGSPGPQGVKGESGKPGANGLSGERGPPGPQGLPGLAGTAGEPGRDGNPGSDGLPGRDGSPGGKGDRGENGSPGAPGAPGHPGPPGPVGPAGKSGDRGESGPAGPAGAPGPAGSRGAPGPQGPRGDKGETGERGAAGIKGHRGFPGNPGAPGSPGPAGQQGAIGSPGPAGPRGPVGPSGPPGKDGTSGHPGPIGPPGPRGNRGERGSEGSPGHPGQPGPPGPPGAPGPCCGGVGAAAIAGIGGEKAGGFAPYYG

Substance: MMP-8 (collagenase 2, neutrophil collagenase)
- cleavage of collagen (SDS-PAGE after 1, 2 and 7 days at 37 C) [1]: both synthetic human type I and type III collagen were cleaved by MMP-1 (FIG. 1A) and MMP-8 (FIG. 1B)
- extent of degradation of collagen (SDS-PAGE) [1]: Synthetic human type III collagen was degraded by MMP-1 to a greater extent than by MMP-8
- cleavage of collagen (SDS-PAGE after 1, 2 and 7 days at 37 C) [2]: both synthetic human type I and type III collagen were cleaved by MMP-1 (FIG. 1A) and MMP-8 (FIG. 1B)
